{"source": "paper PMC3939493", "about": "“Structure of the SAS-6 cartwheel hub from Leishmania major” (eLife, 2014)", "molecules": {"B1": {"name": "Danio rerio SAS-6^1–326 F131D mutant (domain or fragment)", "chain": "GPHMTELLFNKRLQVLVKSKDTDERRSVIRVSIELQLPSSPVHRKDLVVRLTDDTDLYFLYNLIISEEDFQSLKVQQGLLIDFTSFPQKFIDLLEQCICEQDKESPRFLLQLSSSSSAFDHSPSNLNIVETNADKHLTHLSLKLLPGSDTDIKKYLASCLSSVKEEKQQLQQKLRKTEEDLTRQLNYAQQTLSEKSRELDKLRSEWTSQTTSLSSRHMQDLTAEREKALETQSRLQQQNEQLRQELESSHHRSTQQLQTKVSELETANRELIDKKYKSDSTIRDLKAKLTSLEEECQRSKQQVLSLRRENSALDSECHEKERLLNQLQT", "notes": "Dimer by SEC-MALS; source: E. coli BL21 Rosetta, purified (NiNTA, proteolytic tag cleavage, SEC, ion exchange); not shown: His tag, N-terminal, cleaved"}, "B2": {"name": "Danio rerio SAS-6^1–326 wild-type (domain or fragment)", "chain": "B1 chain with D134F", "notes": "also called zebrafish SAS-6; source: E. coli BL21 Rosetta, purified (NiNTA, proteolytic tag cleavage, SEC, ion exchange); not shown: His tag, N-terminal, cleaved"}}, "key": {"SAS-6 [1]": {"target": "T1, SAS-6 (Leishmania major, UniProt E9AFQ5)", "T1 construct": "gene LMJF_35_4280; SAS-6^97–424", "T1 sequence (E9AFQ5 97-424)": "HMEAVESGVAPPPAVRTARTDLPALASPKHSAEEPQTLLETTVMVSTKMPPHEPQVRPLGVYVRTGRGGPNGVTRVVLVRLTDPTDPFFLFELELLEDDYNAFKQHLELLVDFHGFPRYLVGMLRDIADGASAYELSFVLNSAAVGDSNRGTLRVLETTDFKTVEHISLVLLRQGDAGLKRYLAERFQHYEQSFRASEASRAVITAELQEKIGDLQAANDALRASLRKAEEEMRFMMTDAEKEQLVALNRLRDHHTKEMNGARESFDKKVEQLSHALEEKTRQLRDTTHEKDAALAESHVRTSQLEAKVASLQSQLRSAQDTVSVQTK", "experiment": "SEC-MALS of purified protein with […] PK9119 (oligomerization reduced)", "type": "biochemical"}, "SAS-6 [2]": {"target": "T2, SAS-6 (Danio rerio, UniProt Q7ZVT3, F131D)", "T2 construct": "gene sass6; Dr SAS-6^1–326", "T2 sequence (Q7ZVT3 1-326 F131D)": "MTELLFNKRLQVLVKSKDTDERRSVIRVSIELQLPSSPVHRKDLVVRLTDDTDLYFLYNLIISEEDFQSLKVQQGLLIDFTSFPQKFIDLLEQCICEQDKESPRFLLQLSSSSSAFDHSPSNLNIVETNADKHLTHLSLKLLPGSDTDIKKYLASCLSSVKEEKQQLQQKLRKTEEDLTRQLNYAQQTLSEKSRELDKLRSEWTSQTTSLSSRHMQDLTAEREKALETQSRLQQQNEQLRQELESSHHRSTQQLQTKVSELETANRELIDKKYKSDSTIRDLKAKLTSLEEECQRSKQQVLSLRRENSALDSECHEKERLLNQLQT", "experiment": "SEC-MALS of purified protein with […] PK9119 (oligomerization reduced, less than for L. major)", "type": "biochemical"}, "[3]": {"target": "L. major SAS-6^97–274 Y215K mutant (Leishmania major)", "experiment": "AUC; sedimentation equilibrium; 100, 200 and 400 µM protein; 11300, 17000 and 21200 rpm; 4°C; 50 mM Tris, 100 mM NaCl, pH 8.0; monomer-dimer equilibrium model (dimer to monomers)"}, "[4]": {"target": "L. major SAS-6^97–274 wild-type (Leishmania major)", "experiment": "AUC; sedimentation equilibrium; 100, 200 and 400 µM protein; 11300, 17000 and 21200 rpm; 4°C; 50 mM Tris, 100 mM NaCl, pH 8.0; monomer-dimer equilibrium model (dimer to monomers)"}, "[5]": {"target": "L. major SAS-6^97–320 F257E (Leishmania major)", "experiment": "crystal structure; L. major SAS-6^97–320 F257E, sitting drop, 100 mM NaCitrate pH 5.85, 21% PEG-3000, 16°C; 94.7 mg/ml protein; 2.9 Å; four molecules in the asymmetric unit"}, "[6]": {"target": "L. major SAS-6^97–424 F257E mutant (Leishmania major)", "experiment": "SEC-MALS; Superdex S-200 10/300, 50 mM bisTris, 100 mM NaCl, pH 7.0, 0.126% DMSO, with or without 1 mM PK9119; L. major constructs injected at 25 mg/ml (675 µM monomer), zebrafish constructs at 10 mg/ml (263 µM monomer); peak concentrations about 10-fold lower"}, "[7]": {"target": "L. major SAS-6^97–424 wild-type (Leishmania major)", "experiment": "SEC-MALS; Superdex S-200 10/300, 50 mM bisTris, 100 mM NaCl, pH 7.0, 0.126% DMSO, with or without 1 mM PK9119; L. major constructs injected at 25 mg/ml (675 µM monomer), zebrafish constructs at 10 mg/ml (263 µM monomer); peak concentrations about 10-fold lower"}, "[8]": {"target": "the molecule itself", "experiment": "SEC-MALS; Superdex S-200 10/300, 50 mM bisTris, 100 mM NaCl, pH 7.0, 0.126% DMSO, with or without 1 mM PK9119; L. major constructs injected at 25 mg/ml (675 µM monomer), zebrafish constructs at 10 mg/ml (263 µM monomer); peak concentrations about 10-fold lower"}}, "note": "Changes are numbered by the printed parent chain. Names may count otherwise."}
{"molecule": "CCc1cc(Br)cc2c(CN(C)C)c[nH]c12", "note": "[PK9119, (5-bromo-7-ethyl-1H-indol-3-ylmethyl)-dimethyl-amine]", "values": [{"measurement": "SEC-MALS of purified protein with 1 mM PK9119 (oligomerization reduced)", "setting": "SAS-6 [1]", "value": "a decrease in the analysed mass from MALS, demonstrating that PK9119 partially affects head-to-head dimerization"}, {"measurement": "SEC-MALS of purified protein with 1 mM PK9119 (oligomerization reduced, less tha)", "setting": "SAS-6 [2]", "value": "zebrafish SAS-6 oligomerization was also affected by the presence of PK9119, although to a lesser extent"}]}
{"molecule": "L. major SAS-6^97–274 Y215K mutant (domain or fragment)", "values": [{"measurement": "Kd", "setting": "[3]", "value": 190, "unit": "µM"}]}
{"molecule": "L. major SAS-6^97–274 wild-type (domain or fragment)", "values": [{"measurement": "Kd", "setting": "[4]", "value": 622, "unit": "µM"}]}
{"molecule": "L. major SAS-6^97–320 F257E (domain or fragment)", "values": [{"measurement": "stoichiometry N", "setting": "[5]", "value": 8}]}
{"molecule": "L. major SAS-6^97–424 F257E mutant (domain or fragment)", "values": [{"measurement": "stoichiometry N", "setting": "[6]", "value": 2}]}
{"molecule": "L. major SAS-6^97–424 wild-type (domain or fragment)", "values": [{"measurement": "stoichiometry N", "setting": "[7]", "value": 6}]}
{"molecule": "B1", "values": [{"measurement": "stoichiometry N", "setting": "[8]", "value": 2}]}
{"molecule": "B2", "values": [{"measurement": "binding result", "setting": "[8]", "value": "binds"}]}
